Results on 15 substances are retold here after patent publication US20260274936A1.

Chain of human neonatal Fc-receptor (FcRn) (human) (P55899 24-297 limits assumed, chain 1 of 2): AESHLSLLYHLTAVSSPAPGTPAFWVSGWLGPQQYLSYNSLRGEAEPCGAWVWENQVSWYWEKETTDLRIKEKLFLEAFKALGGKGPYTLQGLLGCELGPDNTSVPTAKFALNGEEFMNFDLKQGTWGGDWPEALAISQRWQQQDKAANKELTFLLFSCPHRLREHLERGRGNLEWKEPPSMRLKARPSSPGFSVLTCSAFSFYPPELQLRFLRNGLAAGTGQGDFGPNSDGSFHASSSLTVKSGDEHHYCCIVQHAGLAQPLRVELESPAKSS
Chain of human neonatal Fc-receptor (FcRn) (human) (P61769 21-119 limits assumed, chain 2 of 2, further chain): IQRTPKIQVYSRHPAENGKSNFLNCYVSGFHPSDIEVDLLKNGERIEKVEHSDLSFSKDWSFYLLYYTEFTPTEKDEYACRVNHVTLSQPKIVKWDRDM

The first test addresses human neonatal Fc-receptor (FcRn) (human) (UniProt P55899). Nature of the test: FcRn affinity chromatography; the table in the text prints 51.8 min for 'none'.
In turn, “bispecific anti-VEGF/ANG-2 antibody (knobs-into-holes), FcRn affecting mutation: none (bispecific antibody)” returned an RT of 52.8 min.

Another test has the same target. Nature of the test: FcRn affinity chromatography, anti-VEGF/ANG-2 KiH antibody.
In turn, “bispecific anti-VEGF/ANG-2 antibody (knobs-into-holes), one chain with H435A (bispecific antibody)” gave a retention time on FcRn affinity column of 48.8 min.
On the same count and under the same terms, the same measure for “bispecific anti-VEGF/ANG-2 antibody (knobs-into-holes), one chain with H310A (bispecific antibody)”: 48.4 min; for “bispecific anti-VEGF/ANG-2 antibody (knobs-into-holes), one chain with I253A (bispecific antibody)”: 48.8 min.
“bispecific anti-VEGF/ANG-2 antibody (knobs-into-holes), one chain with H310A/H433A/Y436A (bispecific antibody)” had a retention time on FcRn affinity column of 46.7 min.
Same read-out and setting: for “bispecific anti-VEGF/ANG-2 antibody (knobs-into-holes), one chain with L251D/L314D/L432D (bispecific antibody)” the value was 46.3 min.
Still for that read-out and setting: for “bispecific anti-VEGF/ANG-2 antibody (knobs-into-holes), FcRn affecting mutation: none (bispecific antibody)” the value was 51.8 min; for “bispecific anti-VEGF/ANG-2 antibody (knobs-into-holes), one chain with M252Y/S254T/T256E (bispecific antibody)”, 56.2 min.

The target is the same in the next test. Put plainly: FcRn affinity chromatography.
Take “molecule with IgG1 Fc-region L234A/L235A/P329G and Y436A (symmetric) (antibody)”: the FcRn-affinity column retention time turned out to be 41.3 min.

The target is the same in a further test. Put plainly: FcRn affinity chromatography, anti-HER2 antibody.
With “anti-HER2 antibody, K290H (symmetrically modified)”, the retention time stood at 46.2 min.
On the same count and under the same terms, for “anti-HER2 antibody, D98E (symmetrically modified)” the value was 46.2 min; for “anti-HER2 antibody, N434H (symmetrically modified)”, 52 min; for “anti-HER2 antibody, E258H (symmetrically modified)”, 45.6 min.
The substance “anti-HER2 antibody, R255D (symmetrically modified)” yielded a retention time of 41.4 min.
Consider “anti-HER2 antibody, L309H (symmetrically modified)”, for which the retention time was 45.5 min.
On the same count and under the same terms, the same measure for “anti-HER2 antibody, K288E (symmetrically modified)”: 45.2 min.
